Article PMC8298602, “14-3-3-protein regulates Nedd4-2 by modulating interactions between HECT and WW domains” (Communications Biology, 2021)
Changes are numbered by the printed parent chain.

T1: 14-3-3ζ (human, UniProt P63104 1-245)
T1 construct: 14-3-3 protein zeta, human
T1 sequence (looked up): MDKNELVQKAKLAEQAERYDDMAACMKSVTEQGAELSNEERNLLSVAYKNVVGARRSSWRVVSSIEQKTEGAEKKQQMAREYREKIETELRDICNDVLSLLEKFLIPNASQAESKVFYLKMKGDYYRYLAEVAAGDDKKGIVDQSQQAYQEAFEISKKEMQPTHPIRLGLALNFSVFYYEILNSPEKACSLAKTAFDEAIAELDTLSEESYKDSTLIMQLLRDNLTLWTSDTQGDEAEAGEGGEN

T2: 14-3-3β (human, UniProt P31946 1-246)
T2 construct: 14-3-3 protein beta, human
T2 sequence (looked up): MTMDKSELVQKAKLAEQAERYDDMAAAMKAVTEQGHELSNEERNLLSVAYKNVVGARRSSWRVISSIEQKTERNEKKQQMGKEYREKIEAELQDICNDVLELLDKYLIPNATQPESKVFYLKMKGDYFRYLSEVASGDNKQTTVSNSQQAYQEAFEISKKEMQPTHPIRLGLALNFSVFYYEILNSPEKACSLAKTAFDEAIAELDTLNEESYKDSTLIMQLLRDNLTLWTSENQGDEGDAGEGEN

T3: 14-3-3σ (human, UniProt P31947 1-248)
T3 construct: 14-3-3 protein sigma, human
T3 sequence (looked up): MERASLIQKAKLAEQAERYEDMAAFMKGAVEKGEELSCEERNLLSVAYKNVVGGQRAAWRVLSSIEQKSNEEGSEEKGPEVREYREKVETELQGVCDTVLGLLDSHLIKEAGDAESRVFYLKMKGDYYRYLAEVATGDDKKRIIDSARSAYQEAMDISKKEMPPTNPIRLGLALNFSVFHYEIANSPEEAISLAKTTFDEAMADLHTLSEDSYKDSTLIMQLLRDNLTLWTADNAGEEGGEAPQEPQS

T4: 14-3-3τ (human, UniProt P27348 1-245)
T4 construct: 14-3-3 protein tau (theta), human
T4 sequence (looked up): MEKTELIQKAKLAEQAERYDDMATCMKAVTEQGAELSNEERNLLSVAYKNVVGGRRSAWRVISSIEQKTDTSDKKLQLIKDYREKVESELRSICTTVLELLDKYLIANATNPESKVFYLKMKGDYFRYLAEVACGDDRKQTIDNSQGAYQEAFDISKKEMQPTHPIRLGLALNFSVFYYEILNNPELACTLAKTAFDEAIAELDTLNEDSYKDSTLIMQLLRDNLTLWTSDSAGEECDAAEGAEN

T5: 14-3-3ε (human, UniProt P62258 1-255)
T5 construct: 14-3-3 protein epsilon, human
T5 sequence (looked up): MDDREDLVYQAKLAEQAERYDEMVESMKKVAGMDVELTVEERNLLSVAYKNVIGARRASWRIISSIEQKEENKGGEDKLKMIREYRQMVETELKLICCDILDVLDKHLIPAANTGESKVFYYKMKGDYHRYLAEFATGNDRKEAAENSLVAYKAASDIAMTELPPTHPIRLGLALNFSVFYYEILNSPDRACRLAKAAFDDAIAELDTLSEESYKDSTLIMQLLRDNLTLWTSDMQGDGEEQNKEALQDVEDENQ

T6: 14-3-3γ (human, UniProt P61981 2-247)
T6 construct: 14-3-3 protein gamma, human
T6 sequence: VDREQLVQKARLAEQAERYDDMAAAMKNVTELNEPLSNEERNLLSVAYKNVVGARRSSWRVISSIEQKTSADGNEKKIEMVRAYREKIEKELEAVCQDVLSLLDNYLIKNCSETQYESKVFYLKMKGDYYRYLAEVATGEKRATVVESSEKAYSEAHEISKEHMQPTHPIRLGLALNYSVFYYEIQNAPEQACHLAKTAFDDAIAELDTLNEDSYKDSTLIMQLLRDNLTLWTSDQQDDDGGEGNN

B1: 14-3-3η (natural protein, human)
chain: MGDREQLLQRARLAEQAERYDDMASAMKAVTELNEPLSNEDRNLLSVAYKNVVGARRSSWRVISSIEQKTMADGNEKKLEKVKAYREKIEKELETVCNDVLSLLDKFLIKNCNDFQYESKVFYLKMKGDYYRYLAEVASGEKKNSVVEASEAAYKEAFEISKEQMQPTHPIRLGLALNFSVFYYEIQNAPEQACLLAKQAFDDAIAELDTLNEDSYKDSTLIMQLLRDNLTLWTSDQQDEEAGEGN
notes: 14-3-3 protein eta, human; also called 14-3-3 protein (eta isoform); 14-3-3η dimer
B2: phosphorylated Nedd4-2^335–455 (domain or fragment, human, UniProt Q96PU5 335-455, looked up)
chain: SSRLRSCSVTDAVAEQGHLPPPSAPAGRARSSTVTGGEEPTPSVAYVHTTPGLPSGWEERKDAKGRTYYVNHNNRTTTWTRPIMQLAEDGASGSATNSNNHLIEPQIRRPRSLSSPTVTLS
modifications: phosphoserine at 342, phosphothreonine at 367, phosphoserine at 448
notes: source: E. coli BL21 (DE3), purified (Chelating Sepharose, TEV cleavage, Superdex 75), phosphorylated by PKA in vitro; not shown: His6, N-terminal, cleaved; GB1 domain of protein G, N-terminal, cleaved
B3: Nedd^335-455pS448 (domain or fragment, human, UniProt Q96PU5 335-455, looked up)
chain: B2 chain with S8A, T33A
modifications: phosphoserine at 448
notes: also called pSer^448; source: E. coli BL21 (DE3), purified (Chelating Sepharose, TEV cleavage, Superdex 75), phosphorylated by PKA in vitro; not shown: His6, N-terminal, cleaved; GB1 domain of protein G, N-terminal, cleaved
B4: Nedd^335-455pT367 + pS448 (domain or fragment, human, UniProt Q96PU5 335-455, looked up)
chain: B2 chain with S8A
modifications: phosphothreonine at 367, phosphoserine at 448
notes: as for B2
B5: Nedd^335-455pS342 (domain or fragment, human, UniProt Q96PU5 335-455, looked up)
chain: B2 chain with T33A, S114A
modifications: phosphoserine at 342
notes: as for B2
B6: Nedd^335-455pT367 (domain or fragment, human, UniProt Q96PU5 335-455, looked up)
chain: B2 chain with S8A, S114A
modifications: phosphothreonine at 367
notes: as for B2
B7: Nedd^335-455pS342 + pT367 (domain or fragment, human, UniProt Q96PU5 335-455, looked up)
chain: B2 chain with S114A
modifications: phosphoserine at 342, phosphothreonine at 367
notes: as for B2
B8: Nedd^335-455pS342 + pS448 (domain or fragment, human, UniProt Q96PU5 335-455, looked up)
chain: B2 chain with T33A
modifications: phosphoserine at 342, phosphoserine at 448
notes: The same variant was used in native PAGE, SV-AUC and for the crystal with 14-3-3ηΔC; source: E. coli BL21 (DE3), purified (Chelating Sepharose, TEV cleavage, Superdex 75), phosphorylated by PKA in vitro; not shown: His6, N-terminal, cleaved; GB1 domain of protein G, N-terminal, cleaved

Tests used:
[1] = biological target: the molecule itself; experiment: SEC-SAXS; Superdex 200 Increase 5/150 GL, 20 mM Tris-HCl pH 7.5, 150 mM NaCl, 1 mM TCEP, 3% glycerol, 293.15 K; loaded 2.2 mg/ml Nedd4-2^186–975, 2 mg/ml 14-3-3η, 8.9 mg/ml complex (1:2, 60 μM)
[2] = biological target: T1, 14-3-3ζ; experiment: native gel or EMSA; 12% native TBE-PAGE; 240 pmol of 14-3-3 and 120 pmol of the Nedd4-2 construct loaded; settings: both partners purified
[3] = biological target: T2, 14-3-3β; experiment: as above; settings: both partners purified
[4] = biological target: T3, 14-3-3σ; experiment: as above; settings: both partners purified
[5] = biological target: T4, 14-3-3τ; experiment: as above; settings: both partners purified
[6] = biological target: T5, 14-3-3ε; experiment: as above; settings: both partners purified
[7] = biological target: T6, 14-3-3γ; experiment: as above; settings: both partners purified
[8] = biological target: B1; experiment: AUC; sedimentation velocity, 20 °C, 20 mM Tris-HCl pH 7.5, 150 mM NaCl, 1 mM TCEP; 1 μM 14-3-3η with Nedd4-2^335–455 variants (0.05 – 5 μM); apparent KD, sw isotherm fitted with A + B ⇌ AB, 14-3-3η dimer + one Nedd4-2 molecule; settings: both partners purified
[9] = biological target: B1; experiment: native gel or EMSA; 12% native TBE-PAGE; 240 pmol of 14-3-3 and 120 pmol of the Nedd4-2 construct loaded; settings: both partners purified

Binder: B1
stoichiometry N [1]: 2

Binder: B2
binding result [2]: binds | binding result [3]: binds | binding result [4]: binds | binding result [5]: binds | binding result [6]: binds | binding result [7]: binds | Kd [8]: < 30 nM | stoichiometry N [8]: 2 14-3-3η protomers per Nedd4-2 protomer

Binder: B3
binding result [9]: binds

Binder: B4
binding result [9]: binds

Binder: B5
Kd [8]: 400 ± 100 nM

Binder: B6
Kd [8]: 530 ± 30 nM

Binder: B7
binding result [9]: binds

Binder: B8
Kd [8]: < 30 nM
